T1: human CD30 (commercial), conjugated to digoxigenin (human) (UniProt P28908)
T1 sequence (conjugated to digoxigenin (DIG), looked up): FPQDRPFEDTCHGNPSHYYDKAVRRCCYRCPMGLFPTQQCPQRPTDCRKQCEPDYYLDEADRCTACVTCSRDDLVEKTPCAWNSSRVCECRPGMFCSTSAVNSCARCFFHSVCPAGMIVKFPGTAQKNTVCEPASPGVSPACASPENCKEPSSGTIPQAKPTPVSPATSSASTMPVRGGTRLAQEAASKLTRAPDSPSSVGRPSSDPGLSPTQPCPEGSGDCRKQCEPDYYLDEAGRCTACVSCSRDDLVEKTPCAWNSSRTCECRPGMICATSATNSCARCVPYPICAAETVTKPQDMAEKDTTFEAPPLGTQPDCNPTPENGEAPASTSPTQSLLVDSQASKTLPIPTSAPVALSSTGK


How the values were obtained:
[1] = molecular target: GST-fused human V158 FcγRIIIa (extracellular region) (human) (UniProt P08637); assay: SPR, GST-FcγRIIIa V158 on chip
Sequence of GST-fused human V158 FcγRIIIa (extracellular region) (human) (P08637 17-208 F176V): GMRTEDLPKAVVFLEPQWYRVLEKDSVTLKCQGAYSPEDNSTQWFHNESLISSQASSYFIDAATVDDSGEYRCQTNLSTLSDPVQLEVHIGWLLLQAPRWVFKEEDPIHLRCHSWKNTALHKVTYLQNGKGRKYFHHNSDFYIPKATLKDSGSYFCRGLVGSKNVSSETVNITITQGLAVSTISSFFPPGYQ

[2] = molecular target: GST-fused human V158 FcγRIIIa (extracellular region) (human) (UniProt P08637); assay: AlphaScreen competition with biotin-WT AC10
[3] = molecular target: CD30 fused to the Fc region of IgG1 (R&D Systems) (UniProt P28908); assay: SPR, CD30-Fc on Protein A chip
[4] = molecular target: T1, human CD30 (commercial), conjugated to digoxigenin (human); assay: AlphaScreen competition with biotin-WT AC10

Row | Kd [1] [nM] | IC50 [2] [nM] | Fold KD relative to WT [3] [fold] | Kd [3] [nM] | Fold KD relative to WT [1] [fold] | Fold IC50 relative to WT [4] [fold] | IC50 [4] [nM] | Fold IC50 relative to WT [2] [fold] | Molecule
1 | 18.6 | 87.2 | – | – | – | – | – | – | WT AC10 antibody H0L0 (H0 AC10 VH, L0 AC10 VL)
2 | 3.52 | 183 | 0.5 | 6.75 | 5.28 | 0.12 | 27.2 | 0.48 | AC10 H2L3 (H2 AC10 VH, L3 AC10 VL) (antibody, from a related filing, IgG1, V domains shown) VH: QIQLVESGGGLVKPGGSLRLSCAASGYTFTDYYITWVRQAPGQGLEWMGWIYPGSGNTKYNEKFQGRVTMTVDTSTSTAYMELSSLRSEDTAVYFCANYGNYWFAYWGQGTLVTVSS VL: DIVLTQSPDSLAVSLGERATINCKASQSVDFDGDSYMNWYQQKPGQPPKVLIYAASNLESGIPARFSGSGSGTDFTLTINSLEAEDAATYYCQQSNEDPWTFGGGTKVEIK
3 | 16.6 | 340 | 0.45 | 7.55 | 1.12 | 0.07 | 45.3 | 0.26 | AC10 H1L2 (H1 AC10 VH, L2 AC10 VL) (antibody, from a related filing, IgG1, V domains shown) VH: QIQLVQSGPEVKKPGASVKVSCKASGYTFTDYYITWVRQAPGQGLEWMGWIYPGSGNTKYNEKFQGRVTITVDTSASTAYMELSSLRSEDTAVYFCANYGNYWFAYWGQGTLVTVSS VL: DIVLTQSPSSLSASVGDRVTITCRASQSVDFDGDSYMNWYQQKPGQPPKVLIYAASNLESGIPARFSGSGSGTDFTLTISSLQPEDFATYYCQQSNEDPWTFGGGTKVEIK
4 | 6.13 | 83.5 | 1.45 | 2.33 | 3.03 | 1.59 | 1.99 | 1.04 | AC10 H3L3 (H3 AC10 VH, L3 AC10 VL) (antibody, from a related filing, IgG1, V domains shown) VH: QIQLVQSGPEVKKPGASVKVSCKASGYTFTDYYITWVRQAPGQGLEWMGWIYPGSGNTKYNEKFQGRFVFSVDTSASTAYLQISSLKAEDTAVYFCANYGNYWFAYWGQGTLVTVSS VL: DIVLTQSPDSLAVSLGERATINCKASQSVDFDGDSYMNWYQQKPGQPPKVLIYAASNLESGIPARFSGSGSGTDFTLTINSLEAEDAATYYCQQSNEDPWTFGGGTKVEIK
5 | 11.2 | 221 | 0.6 | 5.63 | 1.66 | 0.11 | 27.7 | 0.39 | AC10 H1L1 (H1 AC10 VH, L1 AC10 VL) (antibody, from a related filing, IgG1, V domains shown) VH: QIQLVQSGPEVKKPGASVKVSCKASGYTFTDYYITWVRQAPGQGLEWMGWIYPGSGNTKYNEKFQGRVTITVDTSASTAYMELSSLRSEDTAVYFCANYGNYWFAYWGQGTLVTVSS VL: DIVLTQSPATLSLSPGERATLSCRASQSVDFDGDSYMNWYQQKPGQPPKVLIYAASNLESGIPARFSGSGSGTDFTLTISSLQPEDFATYYCQQSNEDPWTFGGGTKVEIK
6 | 14.9 | 751 | 0.36 | 9.49 | 1.25 | 0.06 | 55.1 | 0.12 | AC10 H2L1 (H2 AC10 VH, L1 AC10 VL) (antibody, from a related filing, IgG1, V domains shown) VH: QIQLVESGGGLVKPGGSLRLSCAASGYTFTDYYITWVRQAPGQGLEWMGWIYPGSGNTKYNEKFQGRVTMTVDTSTSTAYMELSSLRSEDTAVYFCANYGNYWFAYWGQGTLVTVSS VL: DIVLTQSPATLSLSPGERATLSCRASQSVDFDGDSYMNWYQQKPGQPPKVLIYAASNLESGIPARFSGSGSGTDFTLTISSLQPEDFATYYCQQSNEDPWTFGGGTKVEIK
7 | 4.01 | – | – | 5.95 | – | – | 49.2 | – | AC10 H2L2 (H2 AC10 VH, L2 AC10 VL) (antibody, from a related filing, IgG1, V domains shown) VH: QIQLVESGGGLVKPGGSLRLSCAASGYTFTDYYITWVRQAPGQGLEWMGWIYPGSGNTKYNEKFQGRVTMTVDTSTSTAYMELSSLRSEDTAVYFCANYGNYWFAYWGQGTLVTVSS VL: DIVLTQSPSSLSASVGDRVTITCRASQSVDFDGDSYMNWYQQKPGQPPKVLIYAASNLESGIPARFSGSGSGTDFTLTISSLQPEDFATYYCQQSNEDPWTFGGGTKVEIK
8 | 17.4 | 209 | 1.39 | 2.44 | – | – | 6.09 | – | AC10 H3L1 (H3 AC10 VH, L1 AC10 VL) (antibody, from a related filing, IgG1, V domains shown) VH: QIQLVQSGPEVKKPGASVKVSCKASGYTFTDYYITWVRQAPGQGLEWMGWIYPGSGNTKYNEKFQGRFVFSVDTSASTAYLQISSLKAEDTAVYFCANYGNYWFAYWGQGTLVTVSS VL: DIVLTQSPATLSLSPGERATLSCRASQSVDFDGDSYMNWYQQKPGQPPKVLIYAASNLESGIPARFSGSGSGTDFTLTISSLQPEDFATYYCQQSNEDPWTFGGGTKVEIK
9 | 11.2 | 178 | 0.67 | 5.09 | 1.66 | 0.18 | 17.4 | 0.49 | AC10 H1L3 (H1 AC10 VH, L3 AC10 VL) (antibody, from a related filing, IgG1, V domains shown) VH: QIQLVQSGPEVKKPGASVKVSCKASGYTFTDYYITWVRQAPGQGLEWMGWIYPGSGNTKYNEKFQGRVTITVDTSASTAYMELSSLRSEDTAVYFCANYGNYWFAYWGQGTLVTVSS VL: DIVLTQSPDSLAVSLGERATINCKASQSVDFDGDSYMNWYQQKPGQPPKVLIYAASNLESGIPARFSGSGSGTDFTLTINSLEAEDAATYYCQQSNEDPWTFGGGTKVEIK

Reference: patent US20110236969A1
